Results on six molecules are retold here after patent publication US20190142956A1.

In experiment [1] the target is human plasma fibronectin (human) (UniProt P02751). Kind of experiment: ITC, peptide injected into human plasma FN, PBS pH 7.4, 25 C, triplicate. Details: ΔS: unit not given here. (In general: Isothermal titration calorimetry measures the heat released or taken up as one component is titrated into another.)
Experiment [2] shares this target. Kind of experiment: cell-based or functional assay.
Experiment [3] concerns the target EDA-containing cellular fibronectin made by human fibroblasts and human proximal tubular epithelial cells (human), P02751. Briefly: cell-based or functional assay.

Where no end group is shown, it is not given here.

Chain of EDA-containing cellular fibronectin made by human fibroblasts and human proximal tubular epithelial cells (human), P02751 (P02751 32-2477): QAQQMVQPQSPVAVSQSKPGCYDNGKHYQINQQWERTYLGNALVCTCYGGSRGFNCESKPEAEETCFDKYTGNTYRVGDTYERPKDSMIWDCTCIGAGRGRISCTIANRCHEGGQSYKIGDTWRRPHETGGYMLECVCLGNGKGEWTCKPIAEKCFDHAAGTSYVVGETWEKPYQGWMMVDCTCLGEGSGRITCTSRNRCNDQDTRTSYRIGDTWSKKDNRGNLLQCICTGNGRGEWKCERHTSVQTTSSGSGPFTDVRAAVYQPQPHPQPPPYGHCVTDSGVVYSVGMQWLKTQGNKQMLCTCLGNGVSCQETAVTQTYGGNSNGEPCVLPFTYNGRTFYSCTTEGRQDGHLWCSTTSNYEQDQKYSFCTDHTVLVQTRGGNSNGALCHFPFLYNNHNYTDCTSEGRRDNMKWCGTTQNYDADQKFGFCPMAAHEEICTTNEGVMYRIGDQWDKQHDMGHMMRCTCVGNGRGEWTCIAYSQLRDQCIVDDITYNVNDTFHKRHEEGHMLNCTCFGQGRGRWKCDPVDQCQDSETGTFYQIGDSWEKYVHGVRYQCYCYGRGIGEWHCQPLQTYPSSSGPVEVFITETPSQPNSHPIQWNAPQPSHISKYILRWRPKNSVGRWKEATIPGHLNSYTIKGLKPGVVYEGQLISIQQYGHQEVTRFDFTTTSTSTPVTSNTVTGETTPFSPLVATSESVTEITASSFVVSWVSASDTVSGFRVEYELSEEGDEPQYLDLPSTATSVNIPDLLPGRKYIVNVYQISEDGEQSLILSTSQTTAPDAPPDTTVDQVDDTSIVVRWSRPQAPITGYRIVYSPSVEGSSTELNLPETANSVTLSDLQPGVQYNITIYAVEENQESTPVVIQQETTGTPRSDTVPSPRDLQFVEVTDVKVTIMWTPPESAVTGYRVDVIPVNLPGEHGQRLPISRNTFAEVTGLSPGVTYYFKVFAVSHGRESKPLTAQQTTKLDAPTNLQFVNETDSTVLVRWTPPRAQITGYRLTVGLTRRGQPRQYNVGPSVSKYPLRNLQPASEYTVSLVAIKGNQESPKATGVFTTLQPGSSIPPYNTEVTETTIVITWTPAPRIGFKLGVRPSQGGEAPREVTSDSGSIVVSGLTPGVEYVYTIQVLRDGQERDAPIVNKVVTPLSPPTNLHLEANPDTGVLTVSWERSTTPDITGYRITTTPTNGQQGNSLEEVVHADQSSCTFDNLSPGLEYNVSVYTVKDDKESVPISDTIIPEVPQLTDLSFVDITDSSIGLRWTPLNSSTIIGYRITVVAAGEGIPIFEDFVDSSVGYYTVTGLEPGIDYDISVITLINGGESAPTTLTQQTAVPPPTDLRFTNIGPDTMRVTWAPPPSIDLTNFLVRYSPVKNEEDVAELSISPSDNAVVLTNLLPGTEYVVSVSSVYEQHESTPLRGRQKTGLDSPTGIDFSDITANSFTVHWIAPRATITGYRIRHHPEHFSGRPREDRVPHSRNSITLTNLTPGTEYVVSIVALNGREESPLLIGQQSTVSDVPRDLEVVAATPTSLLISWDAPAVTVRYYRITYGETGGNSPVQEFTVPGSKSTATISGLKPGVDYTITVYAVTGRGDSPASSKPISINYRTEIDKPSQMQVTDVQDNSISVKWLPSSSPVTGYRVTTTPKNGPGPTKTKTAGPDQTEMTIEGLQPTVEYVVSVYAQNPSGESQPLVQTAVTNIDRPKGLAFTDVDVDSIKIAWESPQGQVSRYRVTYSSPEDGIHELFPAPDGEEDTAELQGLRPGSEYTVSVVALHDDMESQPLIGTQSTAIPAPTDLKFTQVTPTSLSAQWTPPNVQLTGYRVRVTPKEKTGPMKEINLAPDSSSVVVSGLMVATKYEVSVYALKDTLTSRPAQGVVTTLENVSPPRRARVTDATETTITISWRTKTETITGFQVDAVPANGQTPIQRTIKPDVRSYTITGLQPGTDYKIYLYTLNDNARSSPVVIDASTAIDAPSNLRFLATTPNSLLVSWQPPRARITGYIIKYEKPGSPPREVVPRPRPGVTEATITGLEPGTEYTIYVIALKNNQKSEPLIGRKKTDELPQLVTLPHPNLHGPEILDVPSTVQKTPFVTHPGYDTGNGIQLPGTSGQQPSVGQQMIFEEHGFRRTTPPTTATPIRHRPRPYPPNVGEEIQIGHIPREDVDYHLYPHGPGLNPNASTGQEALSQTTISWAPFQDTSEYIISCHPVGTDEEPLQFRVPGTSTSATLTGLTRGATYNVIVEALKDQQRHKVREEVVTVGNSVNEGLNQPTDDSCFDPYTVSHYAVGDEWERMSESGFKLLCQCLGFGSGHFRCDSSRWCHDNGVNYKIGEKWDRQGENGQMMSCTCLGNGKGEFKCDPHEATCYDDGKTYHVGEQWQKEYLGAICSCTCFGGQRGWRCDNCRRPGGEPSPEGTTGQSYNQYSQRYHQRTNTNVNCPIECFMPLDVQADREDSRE

A word on the Kd: it is the free concentration of one partner at which half of the binding sites on the other are occupied at equilibrium, for simple one-to-one binding. In experiment [1], “functional upstream domain (FUD) peptide” registered a Kd of 6 nM, a n of 1.59, a ΔG of -11.4 kcal/mol and a ΔH of -31 kcal/mol. Besides, the ΔS in experiment [1] is -65. In experiment [2], this molecule had an IC50, inhibition of A488-FN fibrillogenesis of 25 to 30 nM and a percent inhibition of A488-FN fibrillogenesis, doses up to 20 µM of 60%.
In experiment [1], 10 kDa PEG-FUD (peptide) came in with a Kd of 4.6 nM, a n of 1.55, a ΔG of -11.4 kcal/mol and a ΔH of -34 kcal/mol. This molecule displayed a ΔS in experiment [1] of -74.
In experiment [1], 20 kDa PEG-FUD (peptide) gave a Kd of 10 nM, a n of 1.63, a ΔG of -10 kcal/mol and a ΔH of -30 kcal/mol. Further, the ΔS in experiment [1] is -66. In experiment [2], the IC50, inhibition of A488-FN fibrillogenesis lay within 25 to 30 nM and the percent inhibition of A488-FN fibrillogenesis, doses up to 20 µM was 60%.
In experiment [1], 40 kDa PEG-FUD (peptide) displayed a Kd of 14.7 nM, a n of 1.43, a ΔG of -10.9 kcal/mol and a ΔH of -32.5 kcal/mol. Further, the ΔS in experiment [1] was -73.
The molecule KDQSPLAGESGETEYITEVYGNQQNPVDIDKKLPNETGFSGNMVETEDT [functional upstream domain (FUD) peptide] registered an IC50, inhibition of endogenous EDA+-fibronectin fibrillogenesis (human fibroblasts and HK-2 cells) in experiment [3] of 30 nM.
As for {mPEG 20 kDa}-KDQSPLAGESGETEYITEVYGNQQNPVDIDKKLPNETGFSGNMVETEDT (not fully specified) [20 kDa PEG-FUD], the IC50, inhibition of endogenous EDA+-fibronectin fibrillogenesis (human fibroblasts and HK-2 cells) in experiment [3] amounted to 30 nM.
